Results reported in US20240093162.

T1: Pro-Tgase variant (thermostable variant of Streptomyces mobaraensis Tgase in zymogen form)
T1 chain: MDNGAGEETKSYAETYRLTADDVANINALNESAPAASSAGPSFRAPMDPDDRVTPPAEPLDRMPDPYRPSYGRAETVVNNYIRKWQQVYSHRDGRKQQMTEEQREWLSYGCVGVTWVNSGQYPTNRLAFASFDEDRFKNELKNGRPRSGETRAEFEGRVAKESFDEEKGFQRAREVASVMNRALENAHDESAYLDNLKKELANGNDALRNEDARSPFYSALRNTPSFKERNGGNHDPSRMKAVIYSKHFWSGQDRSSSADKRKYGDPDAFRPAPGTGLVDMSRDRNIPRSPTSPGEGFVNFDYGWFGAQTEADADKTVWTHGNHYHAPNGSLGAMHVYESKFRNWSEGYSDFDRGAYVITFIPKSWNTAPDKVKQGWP

T2: FRAP-Tgase variant (thermostable variant of Streptomyces mobaraensis Tgase having a FRAP tetrapeptide at the N-terminal end)
T2 chain: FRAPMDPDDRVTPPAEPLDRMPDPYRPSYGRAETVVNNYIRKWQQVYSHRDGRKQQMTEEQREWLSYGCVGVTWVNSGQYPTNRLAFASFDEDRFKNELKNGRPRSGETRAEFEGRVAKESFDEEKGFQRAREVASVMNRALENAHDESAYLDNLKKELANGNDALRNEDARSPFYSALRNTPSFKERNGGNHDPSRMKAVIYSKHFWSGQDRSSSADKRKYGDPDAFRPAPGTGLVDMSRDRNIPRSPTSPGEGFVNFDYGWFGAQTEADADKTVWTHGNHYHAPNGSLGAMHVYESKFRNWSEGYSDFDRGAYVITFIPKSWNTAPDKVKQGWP

B1: Streptomyces mobaraensis transglutaminase-activating M4 metalloprotease (TAMEP), mature, catalytically active form (protein)
chain: GTGNSQHSGQVQIGTTKSGSSYQMNDTTRGGHKTYNLNHGSSGTGTLFTDSDDVWGNGTNSDPATAGVDAHYGAQLTWDYYKNVHGRNGIRGDGVGAYSRVHYGNNYVNAFWDDSCFCMTYGDGNGIPLTSIDVAAHEMTHGVTSATANLTYSGESGGLNEATSDMMATAVEFWANNPADPGDYLIGEKININGDGTPLRYMDKPSKDGASKDAWYSGLGGIDVHYSSGPANHWFYLASEGSGPKDIGGVHYDSPTSDGLPVTGVGRDNAAKIWFKALTERMQSNTDYKGARDATLWAAGELFGVNSDTYNNVANAWAAINVGPRASSGVSVTSPGDQTSIVNQAVSLQIKATGSTSGALTYSATGLPAGLSINASTGLISGTPTTTGTSNVTVTVKDSAGKTGSTSFKWTVNTTGGGSVFENTTQVAIPDAGAAVTSPIVVTRSGNGPSALKVDVNITHTYRGDLTIDLVAPNGKTWRLKNSDAWDSAADVSETYTVDASSVSANGTWKLKVQDVYSGDSGTIDKWRLTF
B2: Streptomyces mobaraensis transglutaminase-activating tripeptidyl aminopeptidase (SM-TAP), mature, catalytically active form (protein)
chain: QADIKDRILKIPGMKFVEEKPYQGYRYLVMTYRQPVDHRNPGKGTFEQRFTLLHKDTDRPTVFFTSGYNVSTNPSRSEPTRIVDGNQVSMEYRFFTPSRPQPADWSKLDIWQAASDQHRLYQALKPVYGKNWLATGGSKGGMTATYFRRFYPNDMNGTVAYVAPNDVNDKEDSAYDKFFQNVGDKACRTQLNSVQREALVRRDEIVARYEKWAKENGKTFKVVGSADKAYENVVLDLVWSFWQYHLQSDCASVPATKASTDELYKFIDDISGFDGYTDQGLERFTPYYYQAGTQLGAPTVKNPHLKGVLRYPGINQPRSYVPRDIPMTFRPGAMADVDRWVREDSRNMLFVYGQNDPWSGEPFRLGKGAAARHDYRFYAPGGNHGSNIAQLVADERAKATAEVLKWAGVAPQAVQKDEKAAKPLAPFDAKLDRVKNDKQSALRP

Assays:
[1] = biological target: T1, Pro-Tgase variant (thermostable variant …)
[2] = biological target: T2, FRAP-Tgase variant (thermostable …)

| Protein | proteolytic cleavage by soluble TAMEP: UPLC-MS total ion counts of the cleaved pro-peptide, and N-terminal sequencing [1] | proteolytic digestion by TAMEP immobilized on porous solid supports: UPLC-MS, colorimetric Tgase activity assay, N-terminal sequencing [1] | proteolytic digestion by co-immobilized TAMEP and SM-TAP: UPLC-MS FRAP tetrapeptide area counts [1] | proteolytic cleavage by soluble SM-TAP: UPLC-MS total area count of FRAP tetrapeptide, and N-terminal sequencing [2] | proteolytic digestion by SM-TAP immobilized on porous solid supports: UPLC-MS, colorimetric Tgase activity assay, N-terminal sequencing [2] | proteolytic digestion by co-immobilized TAMEP and SM-TAP: UPLC-MS FRAP tetrapeptide area counts, N-terminal sequencing [2] |
| --- | --- | --- | --- | --- | --- | --- |
| B1 | N-terminal peptide sequencing, performed as described in Example 2 above, confirmed that the FRAP amino acid sequence was present on the N-terminal end of the catalytically active, not mature FRAP-Tgase variant (SEQ ID NO:5) | Activity assay results showed that TAMEP retained protease activity when immobilized on all the porous solid supports shown in Table 2 | Activity assay results showed that co-immobilized TAMEP and SM-TAP retained protease activity on all the porous solid supports set forth in Table 3 below | – | – | – |
| B2 | – | – | – | N-terminal peptide sequencing, performed as described in Example 2 above, confirmed that the FRAP tetrapeptide had been removed from the N-terminal end of the FRAP-Tgase variant (SEQ ID NO:5) resulting in a mature, catalytically active Tgase variant (SEQ ID NO:6) | Activity assay results showed that SM-TAP retained protease activity when immobilized on all the porous solid supports shown in Table 2 | Activity assay results showed that co-immobilized TAMEP and SM-TAP retained protease activity on all the porous solid supports set forth in Table 3 below |
